Molecular target: Soluble human CD137 ECD protein (human) (UniProt Q07011)
Test: SPR, captured via anti-human kappa, soluble ECD injected

Sequence of Urelumab (antibody) (VH): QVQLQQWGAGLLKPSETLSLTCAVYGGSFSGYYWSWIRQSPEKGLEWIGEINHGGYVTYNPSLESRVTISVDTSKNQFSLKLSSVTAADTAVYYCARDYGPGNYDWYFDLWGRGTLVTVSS
Sequence of Urelumab (antibody) (VL): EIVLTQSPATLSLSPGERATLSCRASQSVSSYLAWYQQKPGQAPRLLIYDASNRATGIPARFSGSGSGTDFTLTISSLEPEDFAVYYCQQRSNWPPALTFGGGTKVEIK
Sequence of Soluble human CD137 ECD protein (human) (Q07011 24-186): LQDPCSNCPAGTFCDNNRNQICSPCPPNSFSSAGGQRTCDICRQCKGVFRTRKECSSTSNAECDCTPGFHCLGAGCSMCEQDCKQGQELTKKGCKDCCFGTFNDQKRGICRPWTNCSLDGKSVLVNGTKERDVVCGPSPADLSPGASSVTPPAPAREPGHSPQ

Kd: 11 nM | koff: 0.0023 s⁻¹ | kon: 210000 M⁻¹ s⁻¹
Substance: Urelumab (antibody)
